Measurements taken from patent publication US20220306758A1 (Regeneron, published 2022).
Numbering of substitutions follows the chain as printed.

T1: mouse BCMA-MFC (BCMA with C-terminal mFc tag) (mouse)
T1 construct: Tested at 30 nM only
T1 chain: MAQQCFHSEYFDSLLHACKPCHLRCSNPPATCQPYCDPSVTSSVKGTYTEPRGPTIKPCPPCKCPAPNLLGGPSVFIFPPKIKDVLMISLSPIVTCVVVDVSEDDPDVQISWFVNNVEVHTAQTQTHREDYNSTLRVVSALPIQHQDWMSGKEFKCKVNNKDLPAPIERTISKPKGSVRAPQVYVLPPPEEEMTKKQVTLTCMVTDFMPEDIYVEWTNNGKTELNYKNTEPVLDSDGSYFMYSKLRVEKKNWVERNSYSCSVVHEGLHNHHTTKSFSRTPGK

T2: human BCMA-MFC (extracellular domain of human BCMA with C-terminal mFc tag) (human)
T2 construct: also called hBCMA.mFc
T2 chain: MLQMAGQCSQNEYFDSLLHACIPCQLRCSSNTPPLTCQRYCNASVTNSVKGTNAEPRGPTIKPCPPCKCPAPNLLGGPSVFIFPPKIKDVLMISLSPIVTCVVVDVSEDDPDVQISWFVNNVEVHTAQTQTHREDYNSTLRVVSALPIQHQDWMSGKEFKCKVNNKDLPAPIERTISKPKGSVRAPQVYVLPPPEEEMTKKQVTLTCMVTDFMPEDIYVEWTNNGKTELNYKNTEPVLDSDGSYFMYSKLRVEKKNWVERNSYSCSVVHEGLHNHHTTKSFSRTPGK

T3: human BCMA on cells (endogenous, on multiple myeloma and lymphoma cell lines) (human, UniProt Q02223 1-184)
T3 sequence: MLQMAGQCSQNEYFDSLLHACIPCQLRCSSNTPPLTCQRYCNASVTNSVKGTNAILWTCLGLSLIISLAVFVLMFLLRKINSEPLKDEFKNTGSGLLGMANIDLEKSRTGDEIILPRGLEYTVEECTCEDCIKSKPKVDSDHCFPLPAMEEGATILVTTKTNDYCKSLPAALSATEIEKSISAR

B1: REGN5458 (bsAb25441D), anti-BCMA x anti-CD3 bispecific antibody (bispecific antibody, V domains shown)
VH 1: EVQLVESGGGLVQPGGSLRLSCAASGFTFSNFWMTWVRQAPGKGLEWVANMNQDGSEKYYVDSVKGRFTISRDNAKSSLYLQMNSLRAEDTAVYYCARDREYCISTSCYDDFDYWGQGTLVTVSS
VH 2: EVQLVESGGGLVQPGRSLRLSCAASGFTFDDYSMHWVRQAPGKGLEWVSGISWNSGSKGYADSVKGRFTISRDNAKNSLYLQMNSLRAEDTALYYCAKYGSGYGKFYHYGLDVWGQGTTVTVSS
VL: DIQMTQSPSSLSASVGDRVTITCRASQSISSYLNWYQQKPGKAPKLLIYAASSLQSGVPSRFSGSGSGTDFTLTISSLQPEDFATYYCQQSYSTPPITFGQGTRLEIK
notes: Two different heavy chains paired with a common light chain; human Fc (captured by anti-human Fc in SPR); also called bsAb25441D9; mAb25441D
B2: REGN5459 (bsAb25442D), anti-BCMA x anti-CD3 bispecific antibody (bispecific antibody, V domains shown)
VH 1: B1 VH 1
VH 2: B1 VH 2 with K58I, H108Y, L111M
VL: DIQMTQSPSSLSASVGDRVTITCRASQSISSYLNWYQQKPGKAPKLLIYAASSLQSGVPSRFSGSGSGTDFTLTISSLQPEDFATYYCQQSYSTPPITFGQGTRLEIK
notes: also called mAb25442D; mAb25442D-A647

Columns and labels:
[1] = target: T1, mouse BCMA-MFC (BCMA with C-terminal …); experiment: SPR, Biacore, mAb captured by anti-hFc, 25 C
Description: (§1) The CM5 Biacore sensor surface was derivatized by amine coupling with a monoclonal mouse anti-human Fc antibody (GE, #BR-1008-39) to capture purified anti-BCMA mAbs and anti-BCMA×anti-CD3 bispecific mAbs. All Biacore binding studies were performed in a buffer composed of 0.01M HEPES pH 7.4, 0.15M NaCl, 3 mM EDTA, 0.05% v/v Surfactant P20 (HBS-ET running buffer). […] Antigen samples were then injected over the anti-BCMA and anti-BCMA×anti-CD3 bispecific mAbs captured surfaces at a flow rate of 30 μL/minute. Antibody-reagent association was monitored for 5 minutes while dissociation in HBS-ET running buffer was monitored for 10 minutes. All of the binding kinetics experiments were performed at 25° C. Kinetic association (kₐ) and dissociation (kd) rate constants were determined by fitting the real-time sensorgrams to a 1:1 binding model using Scrubber 2.0c curve fitting software. Binding dissociation equilibrium constants (KD) and dissociative half-lives (t½) were calculated from the kinetic rate constants as: […]

[2] = target: T2, human BCMA-MFC (extracellular domain of …); experiment: SPR, Biacore, mAb captured by anti-hFc, 25 C
Description: as §1

[3] = target: T4, monkey BCMA-MMH (monkey BCMA with C-terminal myc-myc-hexahistidine tag) (monkey); experiment: SPR, Biacore, mAb captured by anti-hFc, 25 C
T4 construct: The words 'extracellular domain' stand before human BCMA in the sentence and are read as applying to the monkey construct too; also called mfBCMA.mmh
T4 sequence (chain, as listed by the source limits assumed): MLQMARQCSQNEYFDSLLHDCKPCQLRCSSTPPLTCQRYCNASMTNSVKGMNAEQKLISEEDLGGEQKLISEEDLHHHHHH
Description: as §1

[4] = target: T3, human BCMA on cells (endogenous, on …); experiment: cell-based or functional assay
[5] = target: T3, human BCMA on cells (endogenous, on …); experiment: cell-based or functional assay; remark: listed apart in the source
[6] = target: T3, human BCMA on cells (endogenous, on …); experiment: cell-based or functional assay; remark: listed apart in the source
[7] = target: T5, human CD3 on Jurkat cells and primary human CD8+ T cells (human, UniProt P07766 23-207; P04234 22-171; P20963 22-164; P09693 23-182); experiment: flow cytometry on primary human CD8+ T cells, n=1
T5 construct: Endogenous CD3 complex on cells; also called hCD3; Jurkat-hCD3
T5 sequence (P07766 23-207 limits assumed, chain 1 of 4): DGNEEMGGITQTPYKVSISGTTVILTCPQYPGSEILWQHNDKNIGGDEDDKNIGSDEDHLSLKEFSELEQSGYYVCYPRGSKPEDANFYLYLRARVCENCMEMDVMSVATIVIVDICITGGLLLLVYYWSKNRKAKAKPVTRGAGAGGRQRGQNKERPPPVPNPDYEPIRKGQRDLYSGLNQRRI
T5 sequence (P04234 22-171 limits assumed, chain 2 of 4): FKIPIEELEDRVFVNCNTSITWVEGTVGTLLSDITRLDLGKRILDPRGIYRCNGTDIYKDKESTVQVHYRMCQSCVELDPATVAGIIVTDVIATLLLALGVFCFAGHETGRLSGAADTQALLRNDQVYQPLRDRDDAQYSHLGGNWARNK
T5 sequence (P20963 22-164 limits assumed, chain 3 of 4): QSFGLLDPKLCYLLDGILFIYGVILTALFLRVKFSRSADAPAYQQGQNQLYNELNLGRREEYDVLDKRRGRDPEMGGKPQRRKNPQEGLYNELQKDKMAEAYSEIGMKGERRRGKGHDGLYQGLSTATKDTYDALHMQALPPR
T5 sequence (P09693 23-182 limits assumed, chain 4 of 4): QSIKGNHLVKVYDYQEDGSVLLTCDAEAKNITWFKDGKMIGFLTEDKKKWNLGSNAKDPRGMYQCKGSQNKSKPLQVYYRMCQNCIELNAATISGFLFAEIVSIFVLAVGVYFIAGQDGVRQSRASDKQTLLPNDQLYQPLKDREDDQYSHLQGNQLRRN
Description: Flow cytometric analysis was utilized to determine binding of BCMA×CD3 bispecific antibodies to human and cynomolgus CD3 (Jurkat cells, mfCD3 engineered Jurkat cells, primary human CD8+ and cynomolgus CD8+ T cells). Briefly, 1e05 cells/well were incubated in the presence of FACS wash with block (PBS+1% filtered FBS+5% mouse serum) with a serial dilution of BCMA×CD3 and control antibodies for 30 minutes on ice. After incubation, the cells were washed twice with cold FACS wash (PBS+1% filtered FBS) and bound antibody was detected by incubating with Alexa647-conjugated anti-human secondary antibody on ice for an additional 30 minutes. Wells containing no antibody or secondary only were used as a control. For the detection of monkey and human T cells, a cocktail of human and cynomolgus cross-reactive antibodies to CD4, CD8 and CD16 was added to the anti-human secondary. After incubation, cells were washed, re-suspended in 200 μL cold PBS containing 1% filtered FBS and analyzed by flow cytometry on a BD FACS Canto II. Cells were gated by FSC-H by FSC-A to select singlet events, followed by side and forward scatters to select for live events. For monkey T cells, additional gating on CD8+/CD16− cells was performed.
EC50 values for FACS binding were calculated using 4-parameter non-linear regression analysis in Prism software.

[8] = target: T3, human BCMA on cells (endogenous, on …); experiment: cell-based or functional assay; remark: listed apart in the source

| Binder | 30 nM mfBCMA.mFc Bind (RU) (mouse BCMA-MFC by the table's title) [1] | binding result [1] | 30 nM hBCMA.mFc Bind (RU) [2] [RU] | Kd [2] [nM] | koff [2] [s⁻¹] | kon [2] [M⁻¹ s⁻¹] | t½ [2] [min] | 90 nM mfBCMA.mmh Bind (RU) [3] [RU] | Kd [3] [nM] | koff [3] [s⁻¹] | kon [3] [M⁻¹ s⁻¹] | t½ [3] [min] | median EC50 of % Survival, H929 target cells, cynomolgus effector cells (FACS cytotoxicity) [4] [nM] | median EC50 of % T activation, H929 target cells, cynomolgus effector cells [4] [nM] | EC50 of NFAT-luciferase activity, Jurkat/NFATLuc reporter cells with Daudi cells [5] [nM] | EC50 of NFAT-luciferase activity, Jurkat/NFATLuc reporter cells with MM1-S cells [5] [nM] | EC50 of NFAT-luciferase activity, Jurkat/NFATLuc reporter cells with NCI-H929 cells [5] [nM] | EC50 of NFAT-luciferase activity, Jurkat/NFATLuc reporter cells with OPM-2 cells [5] [nM] | median EC50 of % Survival, H929 target cells, human effector cells (FACS cytotoxicity) [6] [nM] | median EC50 of % Survival, MM1S target cells, human effector cells (FACS cytotoxicity) [6] [nM] | other results |
| --- | --- | --- | --- | --- | --- | --- | --- | --- | --- | --- | --- | --- | --- | --- | --- | --- | --- | --- | --- | --- | --- |
| B1 | 2.7 | no binding (tested: 30 nM) | 107 | ≤ 0.0223 | ≤ 1e-05 | 448000 | ≤ 1160 | 14.8 | 49.9 | 0.00909 | 182000 | 1.3 | 0.0234 | 0.0683 | 2.1 | 1.2 | 0.68 | 0.66 | 0.103 | 0.0646 | median EC50 of % Survival, U266 target cells, human effector cells (FACS cytotoxicity) [6]: 0.328 nM; median EC50 of % T activation (CD25 on CD8+ T cells), H929 target cells, human effector cells [6]: 0.211 nM; median EC50 of % T activation (CD25 on CD8+ T cells), MM1S target cells, human effector cells [6]: 0.0706 nM; median EC50 of % T activation (CD25 on CD8+ T cells), U266 target cells, human effector cells [6]: 0.107 nM; EC50 [7]: 32 nM; median EC50 of % Survival, Molp8 target cells, human effector cells (FACS cytotoxicity) [8]: 0.707 nM; median EC50 of % Survival, RPMI8226 target cells, human effector cells (FACS cytotoxicity) [8]: 0.0345 nM; median EC50 of % T activation (CD25 on CD8+ T cells), Molp8 target cells, human effector cells [8]: 1.1 nM; median EC50 of % T activation (CD25 on CD8+ T cells), RPMI8226 target cells, human effector cells [8]: 0.0649 nM |
| B2 | 2.4 | no binding (tested: 30 nM) | 96.8 | ≤ 0.0223 | ≤ 1e-05 | 449000 | ≤ 1160 | 12.7 | 38.8 | 0.00864 | 223000 | 1.3 | 0.0692 | 0.158 | 7.9 | 4.4 | 2.7 | 2.6 | 0.301 | 0.288 | median EC50 of % Survival, U266 target cells, human effector cells (FACS cytotoxicity) [6]: 1.66 nM; median EC50 of % T activation (CD25 on CD8+ T cells), H929 target cells, human effector cells [6]: 0.3 nM; median EC50 of % T activation (CD25 on CD8+ T cells), MM1S target cells, human effector cells [6]: 0.458 nM; median EC50 of % T activation (CD25 on CD8+ T cells), U266 target cells, human effector cells [6]: 0.469 nM; EC50 [7]: 4710 nM; median EC50 of % Survival, Molp8 target cells, human effector cells (FACS cytotoxicity) [8]: 1.36 nM; median EC50 of % Survival, RPMI8226 target cells, human effector cells (FACS cytotoxicity) [8]: 0.106 nM; median EC50 of % T activation (CD25 on CD8+ T cells), Molp8 target cells, human effector cells [8]: 6.47 nM; median EC50 of % T activation (CD25 on CD8+ T cells), RPMI8226 target cells, human effector cells [8]: 0.75 nM |
